Substitutions are numbered along the chain they refer to. Numbers in names are those of the source.
Legend:
[1] = target: T1, endogenous wild-type PLB of rat cardiac myocytes (rat, UniProt P61016 1-52); assay: cell-based or functional assay
T1 sequence (looked up): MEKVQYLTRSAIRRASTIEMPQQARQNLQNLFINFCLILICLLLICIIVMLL

[2] = target: T2, sense PLB (wild-type phospholamban) expressed from a recombinant adenovirus (human, UniProt P26678 1-52); assay: Western blot of Sol8 cells co-infected with sPLB and K3E/R14E; bands read as heteropentamer
T2 construct: ID; PLB exists as pentamer and monomer; also called sPLB; wild-type PLB
T2 sequence: T1 sequence (looked up) with N27K

B1: K3E/R14E double point mutation of PLB expressed from a recombinant adenovirus (other)
chain: T1 sequence (looked up) with K3E, R14E, N27K
notes: ID
For B1, the “lowering of the EC50 of Ca2+ for SR Ca2+ uptake, adult rat myocytes” value [1] was 36% and the binding result [2] was “binds”.

From patent US20040121942A1 (University of California, published 2004)
